Reference: publication PMC9972960

How the values were obtained:
[1] = biological target: purified vaccine protein with HA from influenza A/PR/8/1934 (H1N1), without the C-terminal trimerization domain (influenza A/PR/8/1934 (H1N1)) (UniProt P03452); experiment: SEC
[2] = biological target: purified vaccine protein with HA from influenza A/PR/8/1934 (H1N1), without the C-terminal trimerization domain (influenza A/PR/8/1934 (H1N1)) (UniProt P03452); experiment: native gel or EMSA

purified vaccine protein with HA from influenza A/PR/8/1934 (H1N1), without the C-terminal trimerization domain (from UniProt P03452 18-541)
stoichiometry N [1]: 3
stoichiometry N [2]: 3
